Target: TssM (enteroaggregative Escherichia coli (EAEC))
Assay: cryo-EM structure

TssJ (natural protein)
stoichiometry N (TssJ per TssM): 1.5

— doi:10.1101/441683
